Results on five molecules are retold here after article PMC7394560, “Post-replicative pairing of sister ter regions in Escherichia coli involves multiple activities of MatP” (Nature Communications, 2020).

The target of series [1] is T1, MatP (Escherichia coli, UniProt P0A8N0 1-150).
T1 sequence: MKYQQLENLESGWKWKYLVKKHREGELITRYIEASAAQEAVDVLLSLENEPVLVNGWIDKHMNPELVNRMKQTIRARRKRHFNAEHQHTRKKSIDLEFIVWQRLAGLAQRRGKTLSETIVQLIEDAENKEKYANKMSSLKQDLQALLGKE
Kind of series: pull-down. The following applies: EMSA: 10 mM Tris pH 7.5, 125 mM NaCl, 2.5 mM MgCl2, 0.5 mM DTT, 5% glycerol, 1 uM DNA, 0.25 ug poly(dI-dC), 30 C; pull-down: 20 mM Tris pH 7.5, 1 mM MgCl2 …. (In general: In EMSA bound probe runs differently from free probe, usually more slowly.)

Series [2] concerns the molecule itself. Kind of series: native gel or EMSA; 41 bp matS DNA (1 µM) with 3 µM protein; 10 mM Tris pH 7.5, 125 mM NaCl, 2.5 mM MgCl2, 0.5 mM DTT, 5% glycerol, poly(dI-dC); 30 °C for 30 min; 5% native TGE-PAGE; oligomer size on DNA inferred from the mobility of the complexes against theoretical masses.
Series [3] deals with T1, MatP. Kind of series: EMSA; 3 uM MatP, 2.5 mM Mg2+, poly(dI-dC); proposed tetramer; titration 0.2-2 uM in Suppl. Fig. 7a,b; EMSA: 10 mM Tris pH 7.5, 125 mM NaCl, 2.5 mM MgCl2, 0.5 mM DTT, 5% glycerol, 1 uM DNA, 0.25 ug poly(dI-dC), 30 C; pull-down: 20 mM Tris pH 7.5, 1 mM MgCl2, 150. The settings on record: protein: recombinant; MW 21 kDa); chain copies: 4; label: 5' Cy3 on strand 1; blunt.

Series [4] has as its target T2, MatPΔ20-His (Escherichia coli, UniProt P0A8N0 1-130).
T2 sequence: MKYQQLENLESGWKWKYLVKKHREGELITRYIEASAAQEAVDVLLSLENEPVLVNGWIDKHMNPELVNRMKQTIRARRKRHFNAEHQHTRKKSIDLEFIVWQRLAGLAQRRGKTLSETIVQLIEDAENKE
Briefly: EMSA; equivalent efficiency to MatP; faster-migrating complex; EMSA: 10 mM Tris pH 7.5, 125 mM NaCl, 2.5 mM MgCl2, 0.5 mM DTT, 5% glycerol, 1 uM DNA, 0.25 ug poly(dI-dC), 30 C; pull-down: 20 mM Tris pH 7.5, 1 mM MgCl2, 150. The settings on record: protein: recombinant; tags: His tag (MW 32 kDa with tag); chain copies: 2; label: 5' Cy3 on strand 1; blunt.

Series [5] concerns the target T3, MatPΔ20 untagged (Escherichia coli, UniProt P0A8N0 1-130).
T3 sequence: T2 sequence
Briefly: EMSA; equivalent efficiency to MatP; EMSA: 10 mM Tris pH 7.5, 125 mM NaCl, 2.5 mM MgCl2, 0.5 mM DTT, 5% glycerol, 1 uM DNA, 0.25 ug poly(dI-dC), 30 C; pull-down: 20 mM Tris pH 7.5, 1 mM MgCl2, 150. The settings on record: protein: recombinant; tags: none; chain copies: 2; label: 5' Cy3 on strand 1; blunt.

Regarding DNAf(2matS), the binding signal (% DNAf recovered) in series [1] is 63.

B1: MatP (natural protein, E. coli, UniProt P0A8N0 1-150, looked up)
chain: T1 sequence
notes: MatP, macrodomain Ter protein of Escherichia coli; theoretical mass printed as 21 kDa; also called MatP wt; source: E. coli BL21DE3 (pET15b containing matP), purified (heparin column)
What is called stoichiometry N is the number of molecules, sites or subunits per partner or assembly. Regarding B1, the “stoichiometry N” value in series [2] worked out at 4.

B2: matS41 (dsDNA)
DNA 1: AAGTACGGTAAAAGGTGACAGTGTCACTTTCATTGTTGGTA
DNA 2: TACCAACAATGAAAGTGACACTGTCACCTTTTACCGTACTT
As to B2, the binding result in series [3], in series [4] and in series [5] was “binds” each time.

B3: his-tagged MatPΔ20 (domain or fragment, E. coli, UniProt P0A8N0 1-130, looked up)
chain: T2 sequence
notes: MatP of Escherichia coli lacking the last 20 C-terminal residues; theoretical mass of the tagged protein printed as 32 kDa; The printed 32 kDa ('twice bigger' than MatP) is far more than a His tag adds to about 130 residues; also called MatPΔ20-tag; source: E. coli BL21DE3, purified (HisTrap column)
Regarding B3, in series [2], the “stoichiometry N” value was found to be 2.

B4: untagged MatPΔ20 (domain or fragment, E. coli, UniProt P0A8N0 1-130, looked up)
chain: T2 sequence
notes: MatP of Escherichia coli lacking the last 20 C-terminal residues; theoretical mass printed as 18 kDa; source: E. coli BL21DE3 (pET15b containing matPΔ20), purified (heparin column)
Turning to B4, the “stoichiometry N” value in series [2] is 2.
